The values that follow come from article PMC8266642.

The data set concerns the target T1, StrepHP1021 (HP1021) (Helicobacter pylori 26695) (UniProt O25665).
T1 sequence: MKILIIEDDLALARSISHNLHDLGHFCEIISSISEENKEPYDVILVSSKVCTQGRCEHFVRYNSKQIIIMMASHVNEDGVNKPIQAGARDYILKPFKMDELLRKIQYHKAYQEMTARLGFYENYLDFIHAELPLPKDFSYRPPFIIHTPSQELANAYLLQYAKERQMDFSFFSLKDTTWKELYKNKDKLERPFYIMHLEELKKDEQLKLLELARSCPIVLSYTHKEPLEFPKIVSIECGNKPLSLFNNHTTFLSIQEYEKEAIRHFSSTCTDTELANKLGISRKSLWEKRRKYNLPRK
Nature of the data set: EMSA. Conditions: EMSA: 50 mM Tris-HCl pH 8.0, 100 mM NaCl, 0.2% Triton X-100, 5 nM DNA, 37 C 20 min; 4% PAGE in 0.5x TBE or TB at 20-25 C. SPR: 50 mM Tris-HCl pH 8.0, 100 mM …. A general note: Mobility shift assays separate free from complexed probe on a gel.

Turning to “ATGATATTTATATGATATTTTTGGGTAATTTAAGATGAATATCGGTAGCGTTTTGAATAAATTTGTTACTACTTTTCACTTTATTACGCCAAATTTTCCCTTATTACAAACAACTTTGAAATAAATGATTTCCATTTAAAAATCAGCCTTATACTTCTAATAGGTTGCCTTGAGCAACACTTTAATACAAGGAGTCTAAATGAAAGACGCAAATTCGAAGCTATTCTTACTCC (double strand) [phyuA]”, the binding result is “binds”. To “GGAGTAAGAATAGCTTCGAATCTCTATTTTGAAAACCCCTATTTCAGGCTTTTGAGTTTTTTAGGCTCTAGTTTTATCCACCCCTTTGGATTTGATTGGTTAGTCCCAGATAGCTTTTTTTCTTATAGCGTGTTTAGAGTGGATAAATTATCGCTAGGGCTTGTTTTTTTGGCTTGCATTTTTTTGAGCACTAAACCATTGAAAAAATATAG (double strand) [FAM-HP0180 fragment]” belongs “binds more weakly”.
